How the values were obtained:
Assay type in all cases: in vivo
[1] = system: NONcNZO-10 polygenic obese and diabetic mice; test: Body weight and food intake in NONcNZO-10 mice (Example 3)
From the text: Test animals: 19 male NONcNZO-10 polygenic obese and diabetic mice from Jackson Laboratory (See Leiter et al., Diabetes 53 (Suppl. 1): S4-S11, 2004) at 9 weeks of age weighing in the range of 28-35 g were used in this study.
Administration of NT-4/5: NT-4/5 was obtained from Genentech Inc.
The mice were divided into 3 groups of equivalent body weight and baseline glucose distribution (6-7 mice per group). […] Seven days before starting the treatment (day −7), blood samples were collected from the mice as described previously for the determination of baseline levels of blood glucose and triglyceride. After the treatment started, blood samples were collected weekly to determine glucose and triglyceride levels as described in previous examples. Body weight and food intake were monitored 5 days a week through out the entire study.

[2] = system: NONcNZO-10 polygenic obese mice; test: Non-fasting blood triglyceride level in NONcNZO-10 mice (Example 4, Table 18)
From the text: (§1) Test animals: 40 male NONcNZO-10 polygenic obese mice obtained from Jackson Laboratory at 10 weeks of age weighing in the range of 26-32 g were used in this study.
(§2) Administration of NT-4/5: NT-4/5 was produced in E. coli as descried in U.S. Pat. No. 6,184,360. The mice were divided into 6 groups of equivalent body weight and baseline blood glucose distribution (6-7 mice per group). […] A “paired-fed” control group received daily injection of vehicle, but were only fed with the same amount of food the 3 mg/kg group consumed the previous day. On the day when the treatment started (day 1), a baseline blood samples were collected for measuring glucose and triglyceride. Triglyceride level was measured on day 10. At the end of the study (day 12), a terminal blood sample was collected to determine glucose, triglyceride, electrolytes (Na, K, Cl), testoterone, corticosterone, thyroid hormone (total T4) and thyroid stimulating hormone (TSH) levels. Electrolytes, free testosterone, T4 and TSH levels of serum samples were measured by AniLytics (Gaithesburg, M.D) according to the standard protocols employed by the vendor. Other analytes were measured as described above. Body weight, food intake were monitored 5 days per week through out the entire study. Daily water intake was measured from day 5 through day 7.

[3] = system: NONcNZO-10 polygenic obese mice; test: Food intake in NONcNZO-10 mice (Example 4, Table 20)
From the text: as §1, §2

DIO mice [4] = test: Respiratory quotient and energy expenditure by indirect calorimetry (CCMS) in DIO mice (Example 9)
From the text: (§3) Test animals: Mice with diet induced obesity (DIO) were used in this study. 29 male C57BL/6J mice were weaned at 4 weeks of age. Immediately after weaning they were put on 58% high fat diet (D12331i, Research Diet) through out the study. The DIO mice at 13 weeks of age weighing in the range of 28-40 g were used in this study.
Administration of NT-4/5: NT-4/5 was obtained from Genentech Inc. or produced as described in U.S. Pat. No. 6,184,360. The mice were divided into 2 groups of equivalent body weight distribution (8 mice per group). The mice were acclimated individually in the Comprehensive Cage Monitoring System (CCMS, Columbus Instruments) for 2 days, in preparation for the indirect calorimetry, before the treatment started. Each group received 5 daily subcutaneous doses of either vehicle or 10 mg/kg of NT-4/5, respectively. Body weight and food intake were monitored 5 days per week through out the entire study. […] The body composition, i.e. percent lean body mass, fat content, and bone density was determined the day both before treatment started (day 0) and the final day of treatment (day 5) with a PIXImus Mouse Densitometer (GE Lunar Medical Systems, Madison, Wis.) using software version 1.46. […]

DIO mice [5] = test: Body weight, food intake, body composition and bone density (PIXImus) in DIO mice (Example 9)
From the text: as §3
Administration of NT-4/5: NT-4/5 was obtained from Genentech Inc. or produced as described in U.S. Pat. No. 6,184,360. The mice were divided into 2 groups of equivalent body weight distribution (8 mice per group). The mice were acclimated individually in the Comprehensive Cage Monitoring System (CCMS, Columbus Instruments) for 2 days, in preparation for the indirect calorimetry, before the treatment started. Each group received 5 daily subcutaneous doses of either vehicle or 10 mg/kg of NT-4/5, respectively. Body weight and food intake were monitored 5 days per week through out the entire study. The CCMS monitoring and data analysis of oxygen consumption and carbon dioxide production were carried out according published and commonly accepted protocols as described at website of Jackson Laboratory. The body composition, i.e. percent lean body mass, fat content, and bone density was determined the day both before treatment started (day 0) and the final day of treatment (day 5) with a PIXImus Mouse Densitometer (GE Lunar Medical Systems, Madison, Wis.) using software version 1.46. Brommage et al., Am. J. Physiol. Endocrinol. Metab. 285: 454-459 (2003).

[6] = 2 or 10 mg/kg s.c. daily, dose dependent

B1: NT-4/5: mature human neurotrophin-4/5 (SEQ ID NO:1), obtained from Genentech or produced in E. coli (protein, listed as Homo sapiens)
chain: GVSETAPASRRGELAVCDAVSGWVTDRRTAVDLRGREVEVLGEVPAAGGSPLRQYFFETRCKADNAEEGGPGAGGGGCRGVDRRHWVSECKAKQSYVRALTADAQGRVGWRWIRIDTACVCTLLSRTGRA
body weight [1, 6]: reduced body weight | food intake [1, 6]: reduced | rebound hyperphagia or rebound body weight gain ([1]; 30 days after the treatment was terminated): No rebound hyperphagia or rebound body weight gain/overshoot was observed | non-fasting blood triglyceride levels ([2]; daily subcutaneous injection): significantly reduced | non-fasting blood triglyceride level ([2]; lowest dose 0.1 mg/kg/day s.c.): significantly reduced | food intake ([3]; 3 mg/kg): a significant reduction in food intake | food intake ([3]; dose dependent manner): reduced | respiratory quotient (RQ=Vco2/Vo2) (DIO mice [4]; 10 mg/kg s.c. daily, P=0.0025): reduced the respiratory quotient | estimated cumulative energy expenditure (DIO mice [4]; day 1 to day 5, 10 mg/kg, vs vehicle): No change | body fat content (DIO mice [5]; 10 mg/kg s.c. daily): significantly reduced | body weight (DIO mice [5]; 10 mg/kg s.c. daily): significantly reduced | food intake (DIO mice [5]; 10 mg/kg s.c. daily): significantly reduced | lean body mass (DIO mice [5]; 10 mg/kg s.c. daily): but not the lean body mass | Bone mineral density (mean±SEM) (DIO mice [5]; day 0, 10 mg/kg group): 0.5235±0.0158 g/cm^2 | Bone mineral density (mean±SEM) (DIO mice [5]; day 5, 10 mg/kg s.c. daily): 0.5452±0.0142 g/cm^2 | bone density versus vehicle (DIO mice [5]; day 5, P<0.05): significantly different from that of the vehicle

Source: US20090203610A1, “METHODS OF TREATING OBESITY OR DIABETES USING NT-4/5” (RINAT NEUROSCIENCE CORPORATION, priority 2004, published 2009)
